Assay results from IntAct's records for PubMed 31515488.

B1: Notch homolog 2 N-terminal-like protein A (Homo sapiens), Q7Z3S9 (parent)
chain: MCVTYHNGTGYCKCPEGFLGEYCQHRDPCEKNRCQNGGTCVAQAMLGKATCRCASGFTGEDCQYSTSHPCFVSRPCLNGGTCHMLSRDTYECTCQVGFTGKECQWTDACLSHPCANGSTCTTVANQFSCKCLTGFTGQKCETDVNECDIPGHCQHGGTCLNLPGSYQCQCLQGFTGQYCDSLYVPCAPSPCVNGGTCRQTGDFTFECNCLPETVRRGTELWERDREVWNGKEHDEN
partner: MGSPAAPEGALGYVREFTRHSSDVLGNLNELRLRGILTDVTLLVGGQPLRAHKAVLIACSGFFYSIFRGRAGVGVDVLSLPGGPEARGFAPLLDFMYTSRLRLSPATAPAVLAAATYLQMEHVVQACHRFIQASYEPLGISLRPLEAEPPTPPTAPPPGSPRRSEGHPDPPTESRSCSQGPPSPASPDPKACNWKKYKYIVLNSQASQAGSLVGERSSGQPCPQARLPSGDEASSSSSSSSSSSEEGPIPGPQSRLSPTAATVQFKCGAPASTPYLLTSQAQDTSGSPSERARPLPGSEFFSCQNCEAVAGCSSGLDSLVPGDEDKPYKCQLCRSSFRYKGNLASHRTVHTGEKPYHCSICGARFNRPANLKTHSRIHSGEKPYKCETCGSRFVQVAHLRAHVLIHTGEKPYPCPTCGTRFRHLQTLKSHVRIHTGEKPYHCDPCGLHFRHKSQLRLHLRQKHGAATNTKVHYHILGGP
B2: Mannose-1-phosphate guanylyltransferase regulatory subunit alpha (Homo sapiens), Q96IJ6 (parent)
chain: MLKAVILIGGPQKGTRFRPLSFEVPKPLFPVAGVPMIQHHIEACAQVPGMQEILLIGFYQPDEPLTQFLEAAQQEFNLPVRYLQEFAPLGTGGGLYHFRDQILAGSPEAFFVLNADVCSDFPLSAMLEAHRRQRHPFLLLGTTANRTQSLNYGCIVENPQTHEVLHYVEKPSTFISDIINCGIYLFSPEALKPLRDVFQRNQQDGQLEDSPGLWPGAGTIRLEQDVFSALAGQGQIYVHLTDGIWSQIKSAGSALYASRLYLSRYQDTHPERLAKHTPGGPWIRGNVYIHPTAKVAPSAVLGPNVSIGKGVTVGEGVRLRESIVLHGATLQEHTCVLHSIVGWGSTVGRWARVEGTPSDPNPNDPRARMDSESLFKDGKLLPAITILGCRVRIPAEVLILNSIVLPHKELSRSFTNQIIL
B3: Probable RNA-binding protein EIF1AD (Homo sapiens), Q8N9N8 (parent)
chain: MSQATKRKHVVKEVLGEHIVPSDQQQIVRVLRTPGNNLHEVETAQGQRFLVSMPSKYRKNIWIKRGDFLIVDPIEEGEKVKAEISFVLCKDHVRSLQKEGFWPEAFSEVAEKHNNRNRQTQPELPAEPQLSGEESSSEDDSDLFVNTNRRQYHESEEESEEEEAA
partner: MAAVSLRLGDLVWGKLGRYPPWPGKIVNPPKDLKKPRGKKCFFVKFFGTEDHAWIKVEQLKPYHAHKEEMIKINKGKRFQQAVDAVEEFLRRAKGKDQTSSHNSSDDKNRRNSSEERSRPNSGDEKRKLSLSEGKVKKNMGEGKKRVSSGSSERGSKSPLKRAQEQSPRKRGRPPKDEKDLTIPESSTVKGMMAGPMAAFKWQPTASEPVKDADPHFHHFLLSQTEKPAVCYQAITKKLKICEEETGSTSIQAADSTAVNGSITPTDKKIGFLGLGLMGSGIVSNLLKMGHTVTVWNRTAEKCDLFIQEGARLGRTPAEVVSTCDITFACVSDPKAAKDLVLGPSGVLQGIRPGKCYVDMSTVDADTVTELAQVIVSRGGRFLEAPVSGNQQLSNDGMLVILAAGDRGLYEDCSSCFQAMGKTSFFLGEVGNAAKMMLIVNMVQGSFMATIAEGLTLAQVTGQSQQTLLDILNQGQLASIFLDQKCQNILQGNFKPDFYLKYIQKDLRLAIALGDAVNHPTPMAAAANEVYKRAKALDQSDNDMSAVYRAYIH
B4: EKC/KEOPS complex subunit TP53RK (Homo sapiens), Q96S44 (parent)
chain: MAAARATTPADGEEPAPEAEALAAARERSSRFLSGLELVKQGAEARVFRGRFQGRAAVIKHRFPKGYRHPALEARLGRRRTVQEARALLRCRRAGISAPVVFFVDYASNCLYMEEIEGSVTVRDYIQSTMETEKTPQGLSNLAKTIGQVLARMHDEDLIHGDLTTSNMLLKPPLEQLNIVLIDFGLSFISALPEDKGVDLYVLEKAFLSTHPNTETVFEAFLKSYSTSSKKARPVLKKLDEVRLRGRKRSMVG
B5: Four and a half LIM domains protein 5 (Homo sapiens), Q5TD97 (parent)
chain: MTTAHFYCQYCTASLLGKKYVLKDDSPYCVTCYDRVFSNYCEECKKPIESDSKDLCYKDRHWHEGCFKCTKCNHSLVEKPFAAKDERLLCTECYSNECSSKCFHCKRTIMPGSRKMEFKGNYWHETCFVCENCRQPIGTKPLISKESGNYCVPCFEKEFAHYCNFCKKVITSGGITFCDQLWHKECFLCSGCRKDLCEEQFMSRDDYPFCVDCYNHLYANKCVACSKPISGLTGAKFICFQDSQWHSECFNCGKCSVSLVGKGFLTQNKEIFCQKCGSGMDTDI
partner: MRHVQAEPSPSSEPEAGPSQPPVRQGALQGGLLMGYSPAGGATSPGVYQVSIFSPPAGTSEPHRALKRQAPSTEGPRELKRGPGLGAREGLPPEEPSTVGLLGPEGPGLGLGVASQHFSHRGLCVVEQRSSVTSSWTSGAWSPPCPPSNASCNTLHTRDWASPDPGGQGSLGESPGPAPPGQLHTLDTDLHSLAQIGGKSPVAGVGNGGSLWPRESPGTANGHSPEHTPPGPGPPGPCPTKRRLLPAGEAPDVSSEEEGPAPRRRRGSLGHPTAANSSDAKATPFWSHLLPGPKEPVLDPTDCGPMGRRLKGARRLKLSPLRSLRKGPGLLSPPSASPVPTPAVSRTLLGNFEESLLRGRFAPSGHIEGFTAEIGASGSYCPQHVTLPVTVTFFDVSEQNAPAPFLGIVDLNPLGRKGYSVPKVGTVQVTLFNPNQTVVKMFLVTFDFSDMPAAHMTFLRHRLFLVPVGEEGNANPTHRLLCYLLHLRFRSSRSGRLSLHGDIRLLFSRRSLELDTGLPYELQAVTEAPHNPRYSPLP
B6: E3 ubiquitin-protein ligase LNX (Homo sapiens), Q8TBB1 (parent)
chain: MNQPESANDPEPLCAVCGQAHSLEENHFYSYPEEVDDDLICHICLQALLDPLDTPCGHTYCTLCLTNFLVEKDFCPMDRKPLVLQHCKKSSILVNKLLNKLLVTCPFREHCTQVLQRCDLEHHFQTSCKGASHYGLTKDRKRRSQDGCPDGCASLTATAPSPEVSAAATISLMTDEPGLDNPAYVSSAEDGQPAISPVDSGRSNRTRARPFERSTIRSRSFKKINRALSVLRRTKSGSAVANHADQGRENSENTTAPEVFPRLYHLIPDGEITSIKINRVDPSESLSIRLVGGSETPLVHIIIQHIYRDGVIARDGRLLPGDIILKVNGMDISNVPHNYAVRLLRQPCQVLWLTVMREQKFRSRNNGQAPDAYRPRDDSFHVILNKSSPEEQLGIKLVRKVDEPGVFIFNVLDGGVAYRHGQLEENDRVLAINGHDLRYGSPESAAHLIQASERRVHLVVSRQVRQRSPDIFQEAGWNSNGSWSPGPGERSNTPKPLHPTITCHEKVVNIQKDPGESLGMTVAGGASHREWDLPIYVISVEPGGVISRDGRIKTGDILLNVDGVELTEVSRSEAVALLKRTSSSIVLKALEVKEYEPQEDCSSPAALDSNHNMAPPSDWSPSWVMWLELPRCLYNCKDIVLRRNTAGSLGFCIVGGYEEYNGNKPFFIKSIVEGTPAYNDGRIRCGDILLAVNGRSTSGMIHACLARLLKELKGRITLTIVSWPGTFL
partner: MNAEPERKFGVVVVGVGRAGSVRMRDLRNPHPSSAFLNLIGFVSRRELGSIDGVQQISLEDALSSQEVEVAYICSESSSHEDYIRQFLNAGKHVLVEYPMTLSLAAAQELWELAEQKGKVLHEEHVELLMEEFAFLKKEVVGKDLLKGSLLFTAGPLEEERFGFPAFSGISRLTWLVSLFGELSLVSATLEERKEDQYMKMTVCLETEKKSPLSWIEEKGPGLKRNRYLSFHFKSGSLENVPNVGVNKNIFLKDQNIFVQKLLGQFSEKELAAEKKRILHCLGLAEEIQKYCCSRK

Variants of: B1
Details: with bcl6b_human BCL6B

| Variant | effect of a mutation on the interaction |
| --- | --- |
| R74Q | with no effect |
| A115T | with no effect |

Variants of: B2
Details: with gmppb_human GMPPB

| Variant | effect of a mutation on the interaction |
| --- | --- |
| V156I | with no effect |

Variants of: B3
Details: with glyr1_human GLYR1, Q49A26

| Variant | effect of a mutation on the interaction |
| --- | --- |
| R48C | with no effect |

Variants of: B4
Details: with ccdb1_human CCNDBP1, O95273
Sequence of ccdb1_human CCNDBP1, O95273 (O95273 whole entry): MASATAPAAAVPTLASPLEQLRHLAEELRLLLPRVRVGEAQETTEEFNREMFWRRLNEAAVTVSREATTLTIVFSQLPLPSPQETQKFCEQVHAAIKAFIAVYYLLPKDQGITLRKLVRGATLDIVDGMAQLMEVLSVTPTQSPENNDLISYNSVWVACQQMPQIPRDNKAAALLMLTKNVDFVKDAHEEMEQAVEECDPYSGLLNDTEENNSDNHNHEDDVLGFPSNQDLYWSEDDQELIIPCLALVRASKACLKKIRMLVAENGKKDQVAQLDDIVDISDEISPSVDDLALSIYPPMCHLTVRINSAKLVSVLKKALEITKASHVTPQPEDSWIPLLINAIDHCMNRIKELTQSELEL

| Variant | effect of a mutation on the interaction |
| --- | --- |
| T8M | with no effect |
| T129A | with no effect |
| R123Q | disrupting interaction strength |

Variants of: B5
Details: with atosb_human ATOSB

| Variant | effect of a mutation on the interaction |
| --- | --- |
| D24Y | with no effect |
| R204G | with no effect |
| M202L | with no effect |
| R60W | with no effect |

Variants of: B6
Details: with biea_human BLVRA

| Variant | effect of a mutation on the interaction |
| --- | --- |
| R342H | with no effect |
